Laboratory results: patent US6440461B1, “Poly(methylidene malonate) microspheres, preparation method and pharmaceutical compositions containing them” (Virsol, priority 1998, dated 2002)

Tested on: C3H mice
Test: Oral tolerance induction: survival of mice after sensitisation to ovalbumin by subcutaneous injection
Type: in vivo
Settings: 100 micrograms ovalbumin per mouse per day over 5 consecutive days, last dose 7 days before s.c. sensitisation with free ovalbumin (100 micrograms per mouse) on D0 and D14
Protocol: This preparation is administered via the oral route to C3H mice at the dose of 100 micrograms of encapsulated ovalbumin (per mouse per day) over 5 consecutive days. The last oral administration took place 7 days before the sensitisation of the animals to ovalbumin which is carried out by subcutaneous injection of free ovalbumin (100 micrograms per mouse) on days DO and D14. 90% of the mice survive the second injection while less than 30% of the mice administered with the microspheres without ovalbumin or with the same dose of non-encapsulated ovalbumin survive.

B1: ovalbumin (protein, UniProt P01012 2-386, looked up)
Ovalbumin: GSIGAASMEFCFDVFKELKVHHANENIFYCPIAIMSALAMVYLGAKDSTRTQINKVVRFDKLPGFGDSIEAQCGTSVNVHSSLRDILNQITKPNDVYSFSLASRLYAEERYPILPEYLQCVKELYRGGLEPINFQTAADQARELINSWVESQTNGIIRNVLQPSSVDSQTAMVLVNAIVFKGLWEKAFKDEDTQAMPFRVTEQESKPVQMMYQIGLFRVASMASEKMKILELPFASGTMSMLVLLPDEVSGLEQLESIINFEKLTEWTSSNVMEERKIKVYLPRMKMEEKYNLTSVLMAMGITDVFSSSANLSGISSAESLKISQAVHAAHAEINEAGREVVGSAEAGVDAASVSEEFRADHPFLFCIKHIATNAVLFFGRCVSP
- mice surviving the second injection of free ovalbumin: less than 30%
